# According to patent publication EP0311108A2, “Anti-HIV active 3'-azido-2,6-diaminopurine-2',3'-dideoxyriboside” (Stichting REGA V.Z.W., priority 1987, dated 1989):
# B1: beef intestine adenosine deaminase (ADA) (Bos taurus) (protein)
# chain: MAQTPAFNKPKVELHVHLDGAIKPETILYYGRKRGIALPADTPEELQNIIGMDKPLSLPEFLAKFDYYMPAIAGCREAVKRIAYEFVEMKAKDGVVYVEVRYSPHLLANSKVEPIPWNQAEGDLTPDEVVSLVNQGLQEGERDFGVKVRSILCCMRHQPSWSSEVVELCKKYREQTVVAIDLAGDETIEGSSLFPGHVKAYAEAVKSGVHRTVHAGEVGSANVVKEAVDTLKTERLGHGYHTLEDATLYNRLRQENMHFEVCPWSSYLTGAWKPDTEHPVVRFKNDQVNYSLNTDDPLIFKSTLDTDYQMTKNEMGFTEEEFKRLNINAAKSSFLPEDEKKELLDLLYKAYGMPSPASAEQCL
# notes: Kinetic properties of beef intestine adenosine deaminase; from tissue; host or cells: beef intestine
# Columns and labels:
# [1] = substrate: Nc1nc(N)c2ncn([C@@H]3O[C@H](CO)[C@@H](O)[C@@H]3O)c2n1; assay: purified protein, by the assay type; settings: other: substrate of ADA
# [2] = substrate: [N-]=[N+]=N[C@H]1C[C@H](n2cnc3c(N)nc(N)nc32)O[C@@H]1CO; assay: Deamination by adenosine deaminase (substrate kinetics); type: biochemical, beef; settings: other: substrate of ADA
# From the text: Several ddDAPR analogues were examined for their sus­ceptibility to deamination by beef intestine adenosine de­aminase (ADA).
protein,measurement,setting,value
B1,Km,[1],83 µM
same,Vmax,[1],5.9 µmole/mg protein/min
same,Km,[2],11 µM
same,Vmax,[2],40 µmole/mg protein/min
